From publication PMC12436594

Target: PvLDH (lactate dehydrogenase) (Plasmodium vivax) (UniProt Q4PRK9)
Assay: flow cytometry (Ni-NTA beads)
[1] = dUCOTc replaces every T after the 20-nt forward primer

Question: For “CACTCACGTCAGTGACATGCGCATTACGCAGCGCTGCGCAGCGAGTACCGGTCAGAAATTTCGCACCAC [N0 COTc aptamer]”, which Kd (dUCOTc (COT-carboxylate-modified dU) replaces every T after the 20-nt forward primer) is on record?
Answer: 3.7 nM

Question: Which Kd [1] does the source give for “CACTCACGTCAGTGACATGCCAAGCGAAGTTGTGCGCCCGCGTCGTGGTCGTCAGAAATTTCGCACCAC [N5 COTc aptamer]” here?
Answer: 14.4 nM

Question: For “CACTCACGTCAGTGACATGCAGGTCCTCTCGCCCCCAGTGACTTGCGTGGTCAGAAATTTCGCACCAC [N15 COTc aptamer]”, which Kd [1] is on record?
Answer: 5.6 nM
